Measurements as given in PMC6315105 (Cell Reports, 2018).

Columns and labels:
[1] = target: RVFV Gn (crystallization construct) (Rift Valley fever virus, UniProt P21401); experiment: SEC; conditions: both partners purified
[2] = target: SFTSV Gn glycoprotein (residues 20-341) (Severe fever with thrombocytopenia …, UniProt R4V2Q5); experiment: ELISA; conditions: both partners purified
Chain of SFTSV Gn glycoprotein (residues 20-341) (R4V2Q5 whole entry, looked up, the tested form may be a part): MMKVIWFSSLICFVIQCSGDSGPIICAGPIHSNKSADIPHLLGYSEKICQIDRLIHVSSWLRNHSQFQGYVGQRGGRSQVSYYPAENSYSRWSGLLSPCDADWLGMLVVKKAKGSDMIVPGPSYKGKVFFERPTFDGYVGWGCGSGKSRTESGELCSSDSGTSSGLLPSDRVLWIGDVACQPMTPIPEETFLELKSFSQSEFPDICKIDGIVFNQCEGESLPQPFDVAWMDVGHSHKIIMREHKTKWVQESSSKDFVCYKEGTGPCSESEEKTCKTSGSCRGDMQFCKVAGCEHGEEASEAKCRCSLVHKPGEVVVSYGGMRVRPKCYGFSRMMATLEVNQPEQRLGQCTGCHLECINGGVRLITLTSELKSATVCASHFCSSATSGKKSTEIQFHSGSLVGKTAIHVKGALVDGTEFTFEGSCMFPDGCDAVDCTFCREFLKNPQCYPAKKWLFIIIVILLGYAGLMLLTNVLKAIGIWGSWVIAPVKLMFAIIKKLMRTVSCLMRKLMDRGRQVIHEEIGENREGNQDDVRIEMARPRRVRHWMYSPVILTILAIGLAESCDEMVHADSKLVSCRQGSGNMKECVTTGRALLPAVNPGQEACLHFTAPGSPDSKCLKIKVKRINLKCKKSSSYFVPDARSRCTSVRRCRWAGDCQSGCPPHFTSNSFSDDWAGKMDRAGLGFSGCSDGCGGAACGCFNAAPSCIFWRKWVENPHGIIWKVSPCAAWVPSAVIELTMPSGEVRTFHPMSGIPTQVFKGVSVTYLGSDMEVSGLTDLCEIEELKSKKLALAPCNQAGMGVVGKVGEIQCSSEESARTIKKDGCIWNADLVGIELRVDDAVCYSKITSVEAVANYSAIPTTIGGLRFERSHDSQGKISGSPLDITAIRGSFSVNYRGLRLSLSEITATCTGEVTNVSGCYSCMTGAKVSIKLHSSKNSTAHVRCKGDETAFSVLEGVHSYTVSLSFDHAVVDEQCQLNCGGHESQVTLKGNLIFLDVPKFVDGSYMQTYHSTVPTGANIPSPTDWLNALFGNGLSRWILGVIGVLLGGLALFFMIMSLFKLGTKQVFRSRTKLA

Chain of RVFV Gn (crystallization construct) (P21401 168-483): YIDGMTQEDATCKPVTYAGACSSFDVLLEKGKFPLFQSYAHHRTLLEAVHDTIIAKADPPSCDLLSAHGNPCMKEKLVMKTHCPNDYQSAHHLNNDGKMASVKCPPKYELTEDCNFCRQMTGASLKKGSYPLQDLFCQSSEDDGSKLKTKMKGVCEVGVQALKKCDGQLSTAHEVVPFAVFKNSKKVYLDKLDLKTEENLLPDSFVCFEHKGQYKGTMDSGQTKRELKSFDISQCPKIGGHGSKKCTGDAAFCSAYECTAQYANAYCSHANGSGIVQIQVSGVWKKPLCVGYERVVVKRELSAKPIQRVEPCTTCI

Binder | stoichiometry N [1] | binding result [2]
Fab fragment of RV-Gn1 (Fab, V domains shown, also called RV-Gn1 Fab; Fab RV-Gn1) VH: TGSLEESGGRLVTPGTPLTLTCTVSGIDPNSDHMSWVRQAPGKGLEWIAIIYASGTTYYASWAKGRFTISKTSTTVDLRIASPTTEDTATYFCATYPNYPTDNLWGQGTLVTVSG VL: TGMTQTPSPVSAAVGGTVTINCQASQSVYNNYLLSWYQQKPGQPPKRLIYSASTLASGVSSRFKGSGSGTQFTLTISDVQCDDAATYYCLGSYDGNSADCLAFGGGTEVVVK | 1 | –
RV-Gn1 (full-length rabbit IgG) (antibody, V domains shown, also called RVFV-Gn1; source: rabbit hybridoma supernatant, purified (Protein G)) VH: QSLEESGGRLVTPGTPLTLTCTVSGIDPNSDHMSWVRQAPGKGLEWIAIIYASGTTYYASWAKGRFTISKTSTTVDLRIASPTTEDTATYFCATYPNYPTDNLWGQGTLVTVSS VL: TGMTQTPSPVSAAVGGTVTINCQASQSVYNNYLLSWYQQKPGQPPKRLIYSASTLASGVSSRFKGSGSGTQFTLTISDVQCDDAATYYCLGSYDGNSADCLAFGGGTEVVVK | – | no binding (tested: 10μg/ml)
